Experimental data as given in US7507412B2, “Glycoprotein VI fusion proteins” (Merck Patent GmbH, priority 2001, dated 2009).

Experiments:
collagen type III [1] = target: T1, collagen type III (Homo sapiens, UniProt P02461); assay: ELISA: GPVI-Fc binding at collagen-coated microtiter plates; details: HEPES binding buffer pH 7.4, FIG. 4
T1 sequence (P02461 154-1221 limits assumed): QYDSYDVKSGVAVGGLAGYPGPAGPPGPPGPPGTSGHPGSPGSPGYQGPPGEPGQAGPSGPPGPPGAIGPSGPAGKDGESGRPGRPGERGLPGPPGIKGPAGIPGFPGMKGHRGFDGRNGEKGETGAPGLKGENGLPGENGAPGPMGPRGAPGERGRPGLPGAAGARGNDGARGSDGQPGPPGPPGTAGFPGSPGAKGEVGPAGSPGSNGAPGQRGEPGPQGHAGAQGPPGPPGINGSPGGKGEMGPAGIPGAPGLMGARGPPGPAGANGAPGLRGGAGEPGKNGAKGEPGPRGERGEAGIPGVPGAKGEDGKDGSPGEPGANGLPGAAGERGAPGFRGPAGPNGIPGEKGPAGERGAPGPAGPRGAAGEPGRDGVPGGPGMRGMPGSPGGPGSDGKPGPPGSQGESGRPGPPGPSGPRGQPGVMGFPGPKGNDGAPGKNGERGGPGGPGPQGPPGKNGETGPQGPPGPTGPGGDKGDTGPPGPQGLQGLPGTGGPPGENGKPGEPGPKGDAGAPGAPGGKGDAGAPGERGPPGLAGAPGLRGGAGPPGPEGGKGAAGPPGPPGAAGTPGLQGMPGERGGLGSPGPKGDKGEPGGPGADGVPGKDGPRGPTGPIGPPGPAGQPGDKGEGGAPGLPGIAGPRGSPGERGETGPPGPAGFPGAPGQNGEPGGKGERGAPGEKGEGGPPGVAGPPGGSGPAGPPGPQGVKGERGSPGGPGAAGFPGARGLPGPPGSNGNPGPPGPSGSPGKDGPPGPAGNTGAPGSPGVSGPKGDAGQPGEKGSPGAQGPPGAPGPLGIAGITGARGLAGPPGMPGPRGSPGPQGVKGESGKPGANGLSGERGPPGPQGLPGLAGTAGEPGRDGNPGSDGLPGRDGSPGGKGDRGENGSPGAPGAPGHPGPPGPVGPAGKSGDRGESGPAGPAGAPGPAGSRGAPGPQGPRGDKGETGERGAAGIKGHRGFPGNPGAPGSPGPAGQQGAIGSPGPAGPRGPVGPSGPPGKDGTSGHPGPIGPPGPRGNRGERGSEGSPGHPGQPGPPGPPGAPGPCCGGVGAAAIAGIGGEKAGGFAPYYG
Description: GPVI-Fc, solved in HEPES buffer (pH 7.4) containing 1% BSA and 0.05% Tween 20, was allowed to bind at collagen-coated microtiter plates. The amount of collagen-bound GPVI-Fc was calorimetrically detected by an anti-Fc antibody conjugated with horse radish peroxidase. Non-specific binding was estimated by a collagen non-specific Fc fusion protein applied instead of GPVI-Fc. Data shown as mean (n=2).
In principle, collagen coated microtiter plates are used as a matrix and GPVI-Fc as the ligand. The detection of bound GPVI-Fc is carried out by an anti-Fc antibody conjugated with horse radish peroxidase which binds specifically at the Fc moiety. After addition of peroxidase substrate, the amount of bound GPVI-Fc is reflected by an increase in absorption.
The polystyrol microtiterplates are coated with 50 μl of 20 μg/ml collagen type III suspended in TRIS buffered saline pH 8.0 for 12 h. Non-bound collagen is removed by washing. Afterwards, free protein binding sites are blocked by 5% (w/v) milk powder and 0.05% (v/v) Tween® 20 both solved in HEPES buffer (pH 7.4).
GPVI-Fc, in a concentration range of 0.1-100 nM, is solved in binding buffer (HEPES, 1% (w/v) bovine serum albumin, 0.05% (v/v) Tween® 20, pH 7.4). […]
Fifty μl of GPVI-Fc solution are given into each well. […] Finally, the amount of bound GPVI-Fc is calorimetrically detected by the peroxidase reaction.

human platelets = assay: Collagen-induced platelet aggregation, determined turbidometrically; type: cell-based; details: GPVI-Fc added prior to collagen, 10 μg/ml collagen, FIG. 6
Protocol: Platelet aggregation is turbidometrically determined after the addition of 10 μg/ml collagen (control) and in the presence of different GPVI-Fc concentrations. Data are shown as means (n=4).
The therapeutic relevance for GPVI-antagonists to prevent collagen-induced thromboembolic complications is shown by a GPVI-Fc titration curve (FIG. 6). Briefly, stimulation of human platelets with collagen induces an aggregation within minutes. […] Therefore, collagen trapped by GPVI-Fc is no longer able to induce an aggregation of platelets. Considering the therapeutic relevance of GPVI receptor antagonism the following conclusion can be drawn from the results presented above: • (i) GPVI-Fc itself can be used as a drug to prevent collagen-induced thromboembolic complications. • (ii) Antagonism of the platelet GPVI receptor by low molecular drugs should prevent the collagen-induced aggregation.

[2] = target: T2, human collagen type III (Sigma) (human, UniProt P02461 154-1221, limits assumed); assay: SPR, BIAcore 3000, collagen type III immobilised, GPVI in solution, 25 C
T2 construct: Purified natural collagen immobilised on the chip (331 RU); also called Collagen type III (human)
T2 sequence (looked up): T1 sequence (P02461 154-1221 limits assumed)
Protocol: (§1) Protein interactions were identified and characterized by SPR technology using the BIAcore® 3000 instrument (BIAcore®, Freiburg, Germany) and methodology (Johnsson and Lindqvist, 1992; Johnsson et al., 1991). Coupling reagents were used according to protocols developed by the supplier. Coupling to the CM 5 sensor chip was done via activated carboxylate groups to free amine groups of human collagen type III (Sigma®). The pH-scouting and the coupling chemistry was performed under standard conditions (Johnsson and Lindqvist, 1992; Johnsson et al., 1991). For coupling the collagen was diluted to 0.125 µg/ml into 10 mM acetate buffer pH 4.5, resulting in 331 RU immobilized material.
(§2) For the binding experiments purified recombinant glycoprotein VI was used. The protein was diluted into 20 mM Hepes, pH 7.4, 150 mM NaCl, 5 mM EDTA, 0.005% Tween® 20. All binding experiments were performed at 25° C. and performed in duplicates.

collagen type III [3] = target: T1, collagen type III; assay: Binding of GPVI to collagen type III measured by surface plasmon resonance (BIAcore 3000); design: purchased Sigma
Description: The known interaction of GPVI to Collagen was used to develop a binding test with the BIAcore 3000. The binding of proteins to immobilized ligands can be monitored using the phenomenon of surface plasmon resonance (SPR). This technique can give results regarding the affinity and kinetics of interacting molecules in solution.
In this assay human collagen type III was immobilized on the sensor surface as stated in the methods and purified soluble GPVI was passed over the collagen surface.
as §1, with “μg/ml” for “µg/ml”
as §2
The titration with glycoprotein VI was performed at concentrations ranging from 0.2 μg/ml to 50 μg/ml.
Total protein concentrations were determined by the BCA method (Pierce) The kinetic of the interaction of GPVI with collagen can be observed in the sensorgram seen in FIG. 7. In the experiment increasing concentrations of purified GPVI were passed over the collagen type III surface.

[4] = target: T2, human collagen type III (Sigma); assay: SPR equilibrium analysis, assuming 75000 Da and fully active protein
Protocol: as §1, §2

Molecule: GPVI-Fc: Fusion of extracellular part of GPVI (aa 21 to 269), Cys-Gly-Arg linker and Fc of IgG1, encoded in KL74A
- concentration at which collagen-binding sites are completely occupied (saturation curve) (collagen type III [1]): above 100 nM
- suppression of collagen-induced platelet aggregation (human platelets): concentration-dependent reduction of platelet-aggregation

B1: purified recombinant glycoprotein VI (receptor, UniProt Q9HCN6 21-269, looked up)
chain: QSGPLPKPSLQALPSSLVPLEKPVTLRCQGPPGVDLYRLEKLSSSRYQDQAVLFIPAMKRSLAGRYRCSYQNGSLWSLPSDQLELVATGVFAKPSLSAQPGPAVSSGGDVTLQCQTRYGFDQFALYKEGDPAPYKNPERWYRASFPIITVTAAHSGTYRCYSFSSRDPYLWSAPSDPLELVVTGTSVTPSRLPTEPPSPVAEFSEATAELTVSFTNEVFTTETSRSITASPKESDSPAGPARQYYTKGN
notes: also called GPVI; purified soluble GPVI
- koff [2]: 0.003 s⁻¹
- dissociation rate constant from the collagen surface (collagen type III [3]; 25° C.): 0.003 s⁻¹
- time until binding reaches saturation (collagen type III [3]; 25° C., GPVI 0.2-50 μg/ml): about 200 seconds
- half maximal concentration of saturation for the GPVI/collagen interaction (collagen type III [3]; equilibrium binding signal, non linear fit, 1:1 binding model, FIG. 8): 9 µg/mL
- Kd [4]: ~120 nM
